Measured values as given in PMC3923644.
Like-named read-outs stand apart in the source and are kept apart here.

Experiments:
[1] = biological target: T1, APE1 WT (Homo sapiens, UniProt P27695 1-318); assay: SPR
[2] = biological target: T1, APE1 WT; assay: SPR; remark: listed apart in the source
[3] = biological target: T2, APE1 NΔ33 (Homo sapiens, UniProt P27695 34-318, del1-33); assay: SPR
[4] = biological target: T2, APE1 NΔ33; assay: EMSA
[5] = biological target: T1, APE1 WT; assay: EMSA

T1 sequence (P27695 whole entry): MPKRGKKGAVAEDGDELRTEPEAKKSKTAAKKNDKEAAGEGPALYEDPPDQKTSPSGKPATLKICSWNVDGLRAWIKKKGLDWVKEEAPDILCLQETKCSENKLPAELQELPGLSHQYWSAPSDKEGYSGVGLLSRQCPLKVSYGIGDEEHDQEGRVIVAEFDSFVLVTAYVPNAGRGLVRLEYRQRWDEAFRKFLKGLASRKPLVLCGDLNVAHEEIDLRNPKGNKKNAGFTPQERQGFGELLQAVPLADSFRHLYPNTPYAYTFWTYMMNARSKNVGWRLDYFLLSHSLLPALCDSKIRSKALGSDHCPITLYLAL
T2 sequence (P27695 34-318, stated change not applied): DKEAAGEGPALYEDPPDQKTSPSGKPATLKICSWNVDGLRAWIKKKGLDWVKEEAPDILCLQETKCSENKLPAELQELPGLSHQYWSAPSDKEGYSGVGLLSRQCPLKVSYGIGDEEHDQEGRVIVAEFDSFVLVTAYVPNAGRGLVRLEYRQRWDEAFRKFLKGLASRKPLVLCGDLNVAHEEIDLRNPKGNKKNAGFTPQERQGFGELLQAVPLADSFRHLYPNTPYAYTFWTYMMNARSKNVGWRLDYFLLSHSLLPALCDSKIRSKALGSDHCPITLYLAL

Binder | Kd [2] | binding result [3] | binding result [4] | other results
nCaRE-B SIRT1-B mutated (biotinylated) (dsDNA) DNA 1: TTTTTGCTAAGGAGCGTCGCTCTTG DNA 2: CAAGAGCGACGCTCCTTAGCAAAAA | – | – | – | Kd [1]: 119 ± 8 µM
TTTTTTTTTTTTTTTTTTTTTTTT (ssDNA) [poly(dT) 24-mer] | 308 ± 3 µM | no binding | – | –
nCaRE-B SIRT1-B (dsDNA) DNA 1: TTTTTGAGACGGAGTTTCGCTCTTG DNA 2: CAAGAGCGAAACTCCGTCTCAAAAA | – | – | no binding | –
nCaRE-B SIRT1-B (biotinylated) (dsDNA) DNA 1: TTTTTGAGACGGAGTTTCGCTCTTG DNA 2: CAAGAGCGAAACTCCGTCTCAAAAA | 3.9 ± 0.08 µM | no binding | – | –
nCaRE-B SIRT1-A (dsDNA) DNA 1: TTTTTGAGACAGAGTTTCACTCTTG DNA 2: CAAGAGTGAAACTCTGTCTCAAAAA | – | – | no binding | binding result [5]: binds
